EC50 data for 1 molecule are collected here from US20250134962A1 (published 2025).

Like-named read-outs stand apart in the source and are kept apart here.

The target of test [1] is T1, GPC3 (UniProt P51654 25-554). As to the kind of experiment: flow cytometry; HepG2 cells. Background: In flow cytometry, cells or beads pass a laser one at a time.
Test [2] deals with T1, GPC3. The test is described as follows: flow cytometry; HepG2 cells. This is another data set of the same source.

B1: Codrituzumab (antibody, V domains shown)
VH: QVQLVQSGAEVKKPGASVKVSCKASGYTFTDYEMHWVRQAPGQGLEWMGALDPKTGDTAYSQKFKGRVTLTADKSTSTAYMELSSLTSEDTAVYYCTRFYSYTYWGQGTLVTVSS
VL: DVVMTQSPLSLPVTPGEPASISCRSSQSLVHSNRNTYLHWYLQKPGQSPQLLIYKVSNRFSGVPDRFSGSGSGTDFTLKISRVEAEDVGVYYCSQNTHVPPTFGQGTKLEIKR
Regarding B1, the concentration giving a half-maximal response (EC50) with GPC3 [1] and with GPC3 [2] was 0.529 nM each time.

For orientation: EC50 means the midpoint of the concentration-response curve. Higher therefore signals lower potency in that assay.
